These are literature values, as cited in patent publication US20250332099A1, “PROCESS FOR FORMULATING COMPOSITIONS COMPRISING GLUCAGON-LIKE-PEPTIDE-2 (GLP-2) ANALOGUES” (ZEALAND PHARMA A/S, priority 2021, published 2025).

On to `CC[C@H](C)[C@H](NC(=O)[C@H](Cc1ccccc1)NC(=O)[C@H](CC(=O)O)NC(=O)[C@H](CCCNC(=N)N)NC(=O)[C@H](C)NC(=O)[C@H](C)NC(=O)[C@H](CC(C)C)NC(=O)[C@H](CC(N)=O)NC(=O)[C@H](CC(=O)O)NC(=O)[C@H](CC(C)C)NC(=O)[C@@H](NC(=O)[C@@H](NC(=O)[C@H](CC(N)=O)NC(=O)[C@H](CCSC)NC(=O)[C@H](CCC(=O)O)NC(=O)[C@H](CC(=O)O)NC(=O)[C@H](CO)NC(=O)[C@H](Cc1ccccc1)NC(=O)[C@H](CO)NC(=O)CNC(=O)[C@H](CC(=O)O)NC(=O)CNC(=O)[C@@H](N)Cc1c[nH]cn1)[C@@H](C)O)[C@@H](C)CC)C(=O)N[C@@H](CC(N)=O)C(=O)N[C@@H](Cc1c[nH]c2ccccc12)C(=O)N[C@@H](CC(C)C)C(=O)N[C@H](C(=O)N[C@@H](CCC(N)=O)C(=O)N[C@H](C(=O)N[C@@H](CCCCN)C(=O)N[C@H](C(=O)N[C@H](C(=O)N[C@@H](CC(=O)O)C(=O)O)[C@@H](C)O)[C@@H](C)CC)[C@@H](C)O)[C@@H](C)CC` [teduglutide], for which the half-life entry (compared with seven minutes for native GLP-2) was “about two”.

Turning to “GLP-2 [3-33]: truncated GLP-2 [3-33] (DGSFSDEMNTILDNLAARDFINWLIQTKITD; Glucagon-like peptide 2; UniProt P01275 148-178, looked up, fragment)”, the half-life in humans is 27 min.

For “Hy-His-Ala-Asp-Gly-Ser-Phe-Ser-Asp-Glu-Met-Asn-Thr-Ile-Leu-Asp-Asn-Leu-Ala-Ala-Arg-Asp-Phe-Ile-Asn-Trp-Leu-Ile-Gln-Thr-Lys-Ile-Thr-Asp-OH [GLP-2 [1-33]]”, the half-life in humans result is “around 7 minutes”.
